Measurements as given in patent US20220306751A1 (MYTHIC THERAPEUTICS, published 2022).
Numbering of substitutions follows the chain as printed.

T1: CD123 Protein, His Tag, Acro Biosciences Cat. No. ILA-H52H6 (Homo sapiens (Human), UniProt P26951 19-305)
T1 construct: Bought protein; not shown: His tag
T1 sequence: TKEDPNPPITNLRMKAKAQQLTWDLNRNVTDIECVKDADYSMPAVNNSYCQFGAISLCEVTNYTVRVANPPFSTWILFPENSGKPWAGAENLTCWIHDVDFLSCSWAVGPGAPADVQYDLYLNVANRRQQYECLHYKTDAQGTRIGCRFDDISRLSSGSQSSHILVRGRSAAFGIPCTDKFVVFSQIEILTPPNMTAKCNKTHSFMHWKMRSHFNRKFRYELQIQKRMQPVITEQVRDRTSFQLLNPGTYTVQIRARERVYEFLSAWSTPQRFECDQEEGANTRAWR

B1: IMGN632 (antibody, V domains shown)
VH: QVQLVQSGAEVKKPGASVKVSCKASGYIFTSSIMHWVRQAPGQGLEWIGYIKPYNDGTKYNEKFKGRATLTSDRSTSTAYMELSSLRSEDTAVYYCAREGGNDYYDTMDYWGQGTLVTVSS
VL: DIQMTQSPSSLSASVGDRVTITCRASQDINSYLSWFQQKPGKAPKTLIYRVNRLVDGVPSRFSGSGSGNDYTLTISSLQPEDFATYYCLQYDAFPYTFGQGTKVEIK
notes: IgG from Expi293 supernatant; also called MYT1251; starting ABPC
B2: MYT2758 (antibody, V domains shown)
VH: B1 VH with H35A, T107H
VL: B1 VL
notes: IgG
B3: MYT1281 (antibody, V domains shown)
VH: B1 VH with E99H
VL: B1 VL
notes: IgG
B4: MYT1417 (antibody, V domains shown)
VH: QVQLVQSGAEVKKPGASVKMSCKASGYTHTDYYMKWVKQAPGQGLEWIGDIIPSNGATFYNQKFKGKATLTVDRSISTAYMHLNRLRSDDTAVYYCTRSHLLRASWFAYWGQGTLVTVSS
VL: DFVMTQSPDSLAVSLGERATINCKSSQSLLNSGNQKNYLTWYLQKPGQPPKLLIYWASTRESGVPDRFSGSGSGTDFTLTISSLQAEDVAVYYCQNDYSYPYTFGQGTKLEIK
notes: IgG
B5: MYT1424 (antibody, V domains shown)
VH: B4 VH with H29F, D50H
VL: B4 VL
notes: IgG
B6: MYT1425 (antibody, V domains shown)
VH: B4 VH with H29F, I51H
VL: B4 VL
notes: IgG
B7: MYT1427 (antibody, V domains shown)
VH: B4 VH with H29F, P53H
VL: B4 VL
notes: IgG
B8: MYT1428 (antibody, V domains shown)
VH: B4 VH with H29F, S54H
VL: B4 VL
notes: IgG
B9: MYT1429 (antibody, V domains shown)
VH: B4 VH with H29F, N55H
VL: B4 VL
notes: IgG
B10: MYT1430 (antibody, V domains shown)
VH: B4 VH with H29F, G56H
VL: B4 VL
notes: IgG
B11: MYT1431 (antibody, V domains shown)
VH: B4 VH with H29F, A57H
VL: B4 VL
notes: IgG
B12: MYT1432 (antibody, V domains shown)
VH: B4 VH with H29F, T58H
VL: B4 VL
notes: IgG
B13: MYT1433 (antibody, V domains shown)
VH: B4 VH with H29F, F59H
VL: B4 VL
notes: IgG
B14: MYT1434 (antibody, V domains shown)
VH: B4 VH with H29F, Y60H
VL: B4 VL
notes: IgG
B15: MYT1435 (antibody, V domains shown)
VH: B4 VH with H29F, N61H
VL: B4 VL
notes: IgG
B16: MYT1436 (antibody, V domains shown)
VH: B4 VH with H29F, Q62H
VL: B4 VL
notes: IgG
B17: MYT1437 (antibody, V domains shown)
VH: B4 VH with H29F, K63H
VL: B4 VL
notes: IgG
B18: MYT1438 (antibody, V domains shown)
VH: B4 VH with H29F, F64H
VL: B4 VL
notes: IgG
B19: MYT1439 (antibody, V domains shown)
VH: B4 VH with H29F, K65H
VL: B4 VL
notes: IgG
B20: MYT1440 (antibody, V domains shown)
VH: B4 VH with H29F, G66H
VL: B4 VL
notes: IgG
B21: MYT1441 (antibody, V domains shown)
VH: B4 VH with H29F, T97H
VL: B4 VL
notes: IgG
B22: MYT1442 (antibody, V domains shown)
VH: B4 VH with H29F, R98H
VL: B4 VL
notes: IgG
B23: MYT1443 (antibody, V domains shown)
VH: B4 VH with H29F, S99H
VL: B4 VL
notes: IgG
B24: MYT1444 (antibody, V domains shown)
VH: B4 VH with H29F, H100A
VL: B4 VL
notes: IgG
B25: MYT1445 (antibody, V domains shown)
VH: B4 VH with H29F, L101H
VL: B4 VL
notes: IgG
B26: MYT1446 (antibody, V domains shown)
VH: B4 VH with H29F, L102H
VL: B4 VL
notes: IgG
B27: MYT1447 (antibody, V domains shown)
VH: B4 VH with H29F, R103H
VL: B4 VL
notes: IgG
B28: MYT1448 (antibody, V domains shown)
VH: B4 VH with H29F, A104H
VL: B4 VL
notes: IgG
B29: MYT1449 (antibody, V domains shown)
VH: B4 VH with H29F, S105H
VL: B4 VL
notes: IgG
B30: MYT1450 (antibody, V domains shown)
VH: B4 VH with H29F, W106H
VL: B4 VL
notes: IgG
B31: MYT1451 (antibody, V domains shown)
VH: B4 VH with H29F, F107H
VL: B4 VL
notes: IgG
B32: MYT1452 (antibody, V domains shown)
VH: B4 VH with H29F, A108H
VL: B4 VL
notes: IgG
B33: MYT1453 (antibody, V domains shown)
VH: B4 VH with H29F, Y109H
VL: B4 VL
notes: IgG

Columns and labels:
[1] = molecular target: T2, cell surface CD123 on EOL-1 cells (CD123+) (human, UniProt P26951 19-378); assay: flow cytometry on EOL-1 (CD123+) cells, anti-human IgG Alexa Fluor 488; Example 16 calls the fitted value KD
T2 construct: EOL-1 cells, DSMZ ACC 386
Method: 100,000 EOL-1 cells (DSMZ ACC 386) were seeded per well in a 96 well deep well plate. IMGN632 and a pH engineered antibody variant were serially diluted at a 1:3 dilution in ice cold FC buffer (phosphate buffered saline (PBS), pH 7.4+2 mM ethylenediaminetetraacetic acid (EDTA)+2% (v/v) HI FBS). The plates were spun at 2,000 RPM for 2 minuets, the supernatant was removed, and 100 μL of diluted antibody was added to each well with final concentration ranging from 60 nM to 1 pM and incubated for 2 hours at 4° C. Post incubation, the cells were spun at 2000 rpm for 2 min and supernatant was discarded. Cells were washed twice with 500 μL of ice-cold FC buffer and resuspended with […]. The cells were then transferred from the deep well plate to 96 well round bottom plate, spun at 2000 rpm for 2 min and incubated with 100 μL of 10 μg/mL Alexa Fluor 488 conjugated goat anti-human IgG secondary antibody (ThermoFisher Scientific, A11013) for 30 min. Post incubation, cells were washed with FC buffer and resuspended in 100 μL of FC buffer to read on a BD Accuri C6 flow cytometer. Binding affinity was measured as a dissociation constant KD by GraphPad Prism assuming Michaelis-Menten binding kinetics.

[2] = molecular target: T1, CD123 Protein, His Tag, Acro …; assay: BLI, IgG on anti-human Fc sensor, pH 7.4 and pH 5.4
[3] = molecular target: T1, CD123 Protein, His Tag, Acro …; assay: BLI, IgG on anti-human Fc sensor, 50 nM CD123, pH 7.4 and pH 5.4
How it was run: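 Single His/Ala heavy-chain CDR variants were expressed in Expi293 and captured from diluted supernatant on anti-human Fc sensors. By BLI, association with 50 nM His-tagged CD123 ran for 120 s and dissociation for 300–600 s, all in PBST pH 7.4. The full cycle was repeated separately in PBST pH 5.4.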

Binder | binding result [2] | binding result [3] | also measured
B1 | – | – | IC50 [1]: 0.034 nM
B2 | – | – | IC50 [1]: 0.051 nM
B3 | no binding (tested: 50 nM) | – | –
B4 | no binding (tested: 50 nM) | – | –
B5 | no binding (tested: 50 nM) | – | –
B6 | no binding (tested: 50 nM) | – | –
B7 | no binding (tested: 50 nM) | – | –
B8 | – | binds | –
B9 | – | binds | –
B10 | – | binds | –
B11 | – | binds | –
B12 | – | binds | –
B13 | – | binds | –
B14 | – | binds | –
B15 | – | binds | –
B16 | – | binds | –
B17 | – | binds | –

Binder | binding result [2] | binding result [3] | also measured
B18 | – | binds | –
B19 | – | binds | –
B20 | – | binds | –
B21 | no binding (tested: 50 nM) | – | –
B22 | – | binds | –
B23 | no binding (tested: 50 nM) | – | –
B24 | no binding (tested: 50 nM) | – | –
B25 | – | binds | –
B26 | – | binds | –
B27 | no binding (tested: 50 nM) | – | –
B28 | – | binds | –
B29 | – | binds | –
B30 | no binding (tested: 50 nM) | – | –
B31 | – | binds | –
B32 | – | binds | –
B33 | – | binds | –
